The test system of data set [1] is CGRP. The data set is described as follows: Neurogenic skin flare rat model (saphenous nerve stimulation, laser Doppler blood flow). It is filed as in vivo. The conditions noted are these: for start of significant decrease in blood flow response post dose: intravenous; for development of neurogenic flare in vivo: rat. How it is done: Using a neurogenic skin flare rat model the efficacy of G1 was tested for its ability to block CGRP effect in vivo. The saphenous nerve in the rat is electrically stimulated causing CGRP release from nerve endings and leading to vasodilation, the resulting changes in blood flow can be measured using laser Dopler methods.
Changes in blood flow parameters were expressed as the area under the curve (AUC, change in arbitrary Doppler flux units multiplied by time). CGRP receptor antagonist CGRP8-37 (400 nmol/kg, i.v.) was used as a positive control to validate the specificity of the model (data not shown). To determine the effect of G1 prior to dosing for each animal, the baseline blood flow response to stimulation was established with two saphenous nerve stimulations each 30 minutes apart. Rats were treated with G1 after the blood flow response of the second stimulation had returned to baseline levels (approximately 10 minutes post stimulation) and an additional four stimulations at 30 minute intervals were performed.

The target of data set [2] is T1, 25-37 human α-CGRP fragment (Homo sapiens, UniProt P06881).
T1 construct: (CGRP 25-37)
The data set is described as follows: Alanine scan of C-terminal CGRP fragment (CGRP 25-37) by Biacore, epitope identification. It is filed as binding. The conditions noted are these: 25° C., Biacore 3000. How it is done: Interaction analysis was conducted at 25° C. on a Biacore 3000™ system equipped with streptavidin-coated (SA) sensor chips (Biacore AB, Uppsala, Sweden) using a standard Biacore running buffer (HBS-P). […] Each amino acid between position 27-37 was then mutated individually to alanine and expressed the fold loss in affinity compared to the wild-type fragment. N-biotinylated fragments were captured on individual flow cells at low levels (typically 100 response units) to provide the reaction surfaces, while an unmodified flow cell served as a reference channel. Purified Fab fragments of antibody G1 were generated. Fab fragments were titrated over the chip using 1 μM as the top concentration of a two-fold dilution series. Association and dissociation phases were monitored at 100 μl/min for 1 minute and 5 minutes respectively. Surfaces were regenerated with a mixture of 35% ethanol+25 mM NaOH+0.5M NaCl.
Background: Surface plasmon resonance follows binding to a sensor surface in real time, without labels.

The subject of data set [3] is CGRP1-receptor in SK-N-MC cells. The data set is described as follows: Binding assay: blocking human α-CGRP from binding to the CGRP1-receptor in SK-N-MC cells. The conditions noted are these: FIG. 4.
Data set [4] has as its system rat CGRP. The data set is described as follows: Solution competition by Biacore (specificity). The format is binding. Particulars: pre-incubated with rat CGRP. An excerpt: (§1) We determined the specificity of antibody G1 to human or rat CGRP by using the Biacore chip to “probe” the free concentration of a premixed complex of mAb+peptide.
Data set [5] deals with T2, amylin (Homo sapiens, UniProt P10997).
T2 sequence (P10997 34-70 limits assumed): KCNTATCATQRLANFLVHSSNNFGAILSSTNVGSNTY
The data set is described as follows: Solution competition by Biacore (specificity). It is filed as binding. Particulars: pre-incubated with an excess of amylin.
Text: as §1

Data set [6] addresses T3, calcitonin (Homo sapiens, UniProt P01258).
T3 sequence (P01258 85-116 limits assumed): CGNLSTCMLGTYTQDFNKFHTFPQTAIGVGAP
The data set is described as follows: Solution competition by Biacore (specificity). Particulars: pre-incubated with an excess of calcitonin. It is filed as binding.
Text: as §1

The target in data set [7] is T4, adrenomedullin (Homo sapiens, UniProt P35318).
T4 sequence (P35318 95-146 limits assumed): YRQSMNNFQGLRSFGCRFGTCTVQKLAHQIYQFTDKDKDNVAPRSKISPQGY
The data set is described as follows: Solution competition by Biacore (specificity). The format is binding. Particulars: pre-incubated with an excess of adrenomedullin.
Text: as §1

Data set [8] relates to human CGRP. The data set is described as follows: Solution competition by Biacore (specificity). The format is binding. The conditions noted are these: pre-incubated with human CGRP.
Text: as §1

The test system of data set [9] is rats. The data set is described as follows: Indicators of physical or psychological dependence, long term observation of dosed animals. The conditions noted are these: rat, in vivo.
Data set [10] deals with MRMT-1 injected rats. The data set is described as follows: Bone cancer pain model (MRMT-1), mechanical hypersensitivity to von Frey stimuli. It is filed as in vivo, rat. Particulars: IV 10 mg/kg at day 9. How it is done:
Tumour cells used are syngeneic MRMT-1 rat mammary gland carcinoma cells donated from the Novartis Institute (London). The cells are cultured in RPMI 1640 (Gibco) with 10% foetal bovine serum (FCS), 1% L-glutamine 2% penicillin/streptomycin (Gibco). Two brief washes are carried out with 0.1% w/v trypsin to release those cells which adhere to the flask, and then quenched with an equal volume of 10% FCS, followed by centrifugation of the solution for 3 minutes at 1200 rpm. The pellet is washed and resuspended in Hanks medium, and the concentration of cells calculated using a Haemocytometer, with trypan blue staining to determine the number of dead MRMT-1 cells. The final concentration of 3×10^3 cells was then obtained by diluting the solution according to the number of cells seen. The final solution was kept on ice until time of injection.
Male Sprague-Dawley rats weighing close to 170 g at time of surgery were used to generate the cancer model. Anaesthesia was induced in the rats using halothane or isoflurane (1.5-2%) 66% N2O and 33% O2, the leg was shaved over the appropriate area and disinfected with chlorhexidine (Animalcare Ltd, UK.). A small incision in order to expose the anterior-medial surface of the distal end of the tibia was made. A hole was bored in the periosteum using a 0.7 mm dental drill, through which a 2 cm polythene tubing was fed 1 cm into the intra-medullar cavity of the tibia. Using a Hamilton syringe the pre-prepared 10 μl of 3×10^3 MRMT-1 cells were injected through the tubing into the cavity. The tubing was then removed and the hole plugged using bone restorative material (IRM, Dentsply USA). The wound was then irrigated with 0.9% saline and closed with a metal clip. The sham animals were operated upon using the same procedure but injected with 10 μl of Hank's solution alone. The animals were placed in a thermoregulated recovery box until such time that they were able to be placed back in their housing cages.
Testing behaviour towards mechanical stimuli uses von Frey filaments (North Coast Medical Inc., USA) to the plantar surface of both the ipsilateral and contralateral hindpaw. The rats were placed in a Perspex cubicle with a mesh floor and allowed to acclimatise for 10 minutes. Each von Frey was applied 10 times to each hindpaw alternating between the ipsilateral and contralateral, for duration of 2-3 seconds each time. […] A nocifensive response (a lift) is defined as a brisk withdrawal of the hindpaw and the number of lifts for each paw at each von Frey are recorded (maximum of 10) and expressed as a percentage response. An assessment of the efficacy of rodent anti-CGRP antibody G2 in attenuating hypersensitivity to a wide variety of static mechanical, cooling and integrated stimuli was carried out as well as the background basal pain behaviours in this validated model of cancer induced bone pain. The responses measured are attenuated by standard analgesic treatments such as morphine and gabapentin. All measures were made by the same scientist in a blind fashion—blinded to the identity of the compound/control and to the treatment of the animal.
G2-was given IV at 10 mg/kg at day 9 and rats were tested at 2 hrs and then on days 10, 11, 12 and then 14-18 days post treatment (FIG. 1).

In data set [11] the test system is MRMT-1 injected rats. The data set is described as follows: Rota rod test for motor impairment in the bone cancer pain model. It is filed as in vivo, rat. Particulars: MRMT-1 injected rats treated at day 9 post surgery. An excerpt: A further end point tested in the bone cancer pain model was ambulation (by rotarod). The test is to obtain a measurement of locomotor impairment comparing antibody treated with control animals, each subjected to the same test under the same conditions. The rota rod test consists of 4 rotateable drums divided by flanges with a motor-driven drum accelerated (Ugo Basile, Comerio, VA, Italy). For a given trial, a rat is placed on the rotating rod and the rotation speed is accelerated from 4 to 16 rpm in 2 min. The time of maximal performance is typically set at 120 sec. Each animal generally receives three trials per day, at 1 hr intervals, for several consecutive days post-surgery. The latency to fall off the rod is represented as mean of the three trials.
In general terms: The rotarod test checks motor coordination on a turning rod.

“G1: humanized IgG2Δa monoclonal anti-CGRP antagonist antibody from expression vectors ATCC PTA-6867 and PTA-6866; variable regions SEQ ID Nos. 1 and 2”: the “start of significant decrease in blood flow response post dose” value was 120 min in data set [1] (1 mg/kg) and 90 min in [1] (10 mg/kg). Also, in [1] (FIG. 9, intravenous administration), the “inhibits neurogenic flare in the skin starting from, post-treatment” value turned out to be 90 min. Also, the “development of neurogenic flare in vivo” value in data set [1] is reported as “prevent the development of neurogenic flare”. In [2], the “affinity of N-biotinylated 25-37 human α-CGRP fragment compared with full-length N-biotinylated human α-CGRP” value was “same affinity”. In addition, the “inhibition of binding of α-CGRP to the CGRP1 receptor” value in [3] is recorded as “inhibits the binding”. Moreover, the “Biacore response after pre-incubation with peptide” value in data set [4] and in data set [8] was “fully blocked” throughout. The “complex formation with peptide” value in data set [5], in data set [6] and in [7] was “did not form a complex” each time. The CNS penetration result in data set [9] is recorded as “Neither antibody G1 nor antibody G2 demonstrate CNS penetration”.

B1: G2: anti-rat CGRP mouse monoclonal antibody (Wong H C et al. Hybridoma 1993); variable regions SEQ ID Nos. 19 and 20; murine tool (antibody, V domains shown)
VH: EVQLQQSGPELVKPGASVKMSCKASGYTFTSSVMHWVKQKPGQGLEWIGYINPYNDGTKYNEKFKGKATLTSDKSSSTAYMELSSLTSEDSAVYYCAKGGNDGYWGQGTTLTVSS
VL: EIVLTQSPTTMAASPGEKITITCSASSSISSIYLHWYQQKPGFSPKVLIYRASNLASGVPARFSGSGSGTSYSLTIGTMEAEDVATYYCQQGSTIPFTFGSGTKLEIK
modifications: Synthetic polypeptide, Antibody G2 heavy chain variable region; Synthetic polypeptide, Antibody G2 light chain variable region
notes: anti-rat CGRP mouse monoclonal antibody (Wong H C et al. Hybridoma 1993); murine tool
B1: the “development of neurogenic flare in vivo” value in [1] is on record as “prevent the development of neurogenic flare”. For the same molecule, the “hypersensitivity to von Frey 15 g vs vehicle treated group” value in [10] (2 and 3 days after drug administration) was “significance seen”; in [10] (2 hours post-injection), “reduction in hypersensitivity”; in data set [10] (6 days after G2 administration) it was “reductions were lost”. Further, the “Withdrawal frequencies to von Frey 8 g vs vehicle treated group” value is given as “no discernible difference” in [10] (day 14 (day 5 post-G2 injection)); “significantly reduced” in data set [10] (days 11 and 12 (days 2 and 3 after injection)). Further, the “Withdrawal frequencies to von Frey 8 g” value in data set [10] (two hours after injection) is given as “reduced”. For the same molecule, the “latency to fall from the rotarod during forced ambulation vs vehicle group” value in [11] was “No differences were found”. For the same molecule, the CNS penetration entry in [9] was “Neither antibody G1 nor antibody G2 demonstrate CNS penetration”.

The values above are taken from US10323085B2, “Methods of treating fibromyalgia” (Teva Pharmaceuticals International GmbH, priority 2008, dated 2019).
